Experimental findings from article PMC10516654, “Structural and functional characterization of MrpR, the master repressor of the Bacillus subtilis prophage SPβ” are described below.

The target in this data set is T1, MrpR (Bacillus subtilis prophage SPβ, UniProt O34558 1-325).
T1 sequence: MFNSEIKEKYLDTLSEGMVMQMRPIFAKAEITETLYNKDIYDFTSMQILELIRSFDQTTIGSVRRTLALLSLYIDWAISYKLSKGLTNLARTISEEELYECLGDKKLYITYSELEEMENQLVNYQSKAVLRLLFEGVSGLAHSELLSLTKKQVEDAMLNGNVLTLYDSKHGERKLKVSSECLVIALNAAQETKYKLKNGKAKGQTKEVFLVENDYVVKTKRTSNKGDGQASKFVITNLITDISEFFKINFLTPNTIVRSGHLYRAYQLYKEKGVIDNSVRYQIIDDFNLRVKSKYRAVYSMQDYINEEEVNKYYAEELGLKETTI
In words: ITC; ITC: 20 mM HEPES-Na pH 7.5, 200 mM NaCl, 20 mM KCl, 25 C, 20 uM DNA in cell, protein in syringe, one set of sites; EMSA: same buffer plus 50 ug/ml herring sperm DNA, 50 nM DNA, RT 15 min, 6% native PAGE 0.5x TBE. The conditions noted are these: protein: recombinant; tags: C-terminal His6; blunt.

B1: aimR promoter ITC duplex (LC292/LC293) (dsDNA)
DNA 1: GAATTTTAAAGAGATTACAAATACAAAAAATATGTATAAAATAATTGACTCGTAATG
DNA 2: CATTACGAGTCAATTATTTTATACATATTTTTTGTATTTGTAATCTCTTTAAAATTC
The Kd is the free concentration of one partner at which half of the binding sites on the other are occupied at equilibrium, for simple one-to-one binding. In the case of B1, the equilibrium dissociation constant (Kd) was determined as 238 ± 80 nM.
